test: label from the status in PepcDB records

| Sequence | protein production |
| --- | --- |
| MKEDYFAEDPKFFNKKLRPKNLDEILKFLKEKFILNDEDKIILITSGGTKVPLEKIEIRNIDNFSTGKRGTLICEYFLKINKKVIFLHRKGSYIPFEYHLKDLAKMENLKVEENNIRFNLTKENERNILIDNLQNYKMYYNNLFLISYDTIFEYGFYLIEISNLLNELMINKYQNTFLLKNIYHKLKQEHNINNLLLYEIFYSTNNILNDMLLFFMSIQNKKCSEISKHQNTSYKLYYKLLLFLNLRFDVYSNNQFFINIQLFFKYIFSLLSNIIQMKEKYNIQQEEIQNIILYIQMLIKNFNSNVLQNNINEQEVIHNNININNIKEEQIIPNNIKNIHNNDNINHCDDNKINNPDNHLLNTDTYILHNNNPSCNDYNLNNLSFNINKYINEEKGKNKKTNQHISEQFLFPTHLVIMCAAASDFYIPYDEMHENKIDSNYSPLSIQLCLTPKFYKIINSHFPLLKYCIFKLEDEEKILIDKSNERIKYTDLLIANLLTQRYDYVYIFKKQFEYVLLKKSNSEQIENDICYEICKHFSIL | failed |
| MKEIKYLIPYVIFTSFSYYFAKNGVEQVSPSLFMGIRYLLSGLILLPFAKKLRITKNIILLAIMTSTSTAFWAYGLLYVSPAESAVLSYSMPIFSLPIAFLMVSERPSKVEIIGIVIGFTGVIIYGIPLMKGFTIFGAVLTISNAVFWASFTVFYRKLKEEDPFSTNAMQFLIGSLFLFALVPLDPSHNFSLSFAVDVIWMATLGGALQFILWNFMVKISAVNRITVLAFAVPIFTTILGVILSHEIPSGLAIAGVIIMFTGIFVSRLKGGISIVRETSG | failed |
| MKEITIALVGQPNVGKSSLINALSNAHLKVGNFAGVTVDKMEVGLIHKEHQITIIDLPGTYALNDFTTEEKVTKDFLEKGQYDLILNVVDSTNLERNLALSAQLLDTNKKMLLALNMWDEAQKEGIKINTEKLSKELGVVCVPTSARSKEDRLNTELLLDEIVRLYSQNTTNNENIKVPSQSFKESLKYSQSAQRIAQLVISENQQNASFEHTYKIDKILMHKRYGIFIFLGFMFIIFSLSFLIGGGVQKALETGFKFLSDGIKENVANEDLASLVGDGIIGGVGATVSFLPLIVVLYFGISLLETTGYMSRVAFLLDGILHKFGLHGKSFIPLITGFGCSVPAYMATRTLQNYNERLITLFVIGFMSCSARLPIYVLFVGSFFPSSSAGFVLFCIYILGAVVALVMAKLLKLSVFKGQTESFIMEMPKYRFPSWRMVYFSIYTKSLSYLKKAGTYILVGAILIWFMSQYPKSDAAMKAYKQESLLVNKDTTLSSEAKEEKLKELKTELDKKNLKNSIVGRGGAYLEKVFSPMDFDWRLSVSLVTGFMAKEVVVSTLGVLFSLGDQNEKSDAFRGILRKEVSVPSGIAFIVFVMFYIPCFAATITFGREAGGIKFVAYLFIFTTVVAYAFSLIAFYATQILV | failed |
| MKELLKLDFFIQKKYIKSSIIVFLFLGITFALTQGMNYLYTMGTFIVFYLTIIPIEVERKSKFNIYLNSLPNKKSNYIYSKYLSTLIYIIVVNLFLYLFCTILGVISGSDFTLTLRAILPNIIVQLFYVSLTLPVYMIISHKFYRVVNIIFTILIMMISSILFNSLENENLQVLFNITNGVYGLAFGILALIISLIVSLNIYKKSEVS | failed |
| MKELSDVILDRIDAICDEADLLFEDEKSEEAIAKYNEALTLLPEPIEEYEPSAWLISSIGDVYFFDEEYEKALAQFEHAMGCIDSEDNPYLLLRAGQCHFELGQMQDAEDTMHEAYLIEGEEIFEEEDPKYWEFLKSKITIVDLEHHHHHH | not failed |
| MKENEYRFIMRIFVLVSFTAVLMIAVPFLDTIAFACAFAYMTEPFFNAVRRYAGRTLGAILSILMVTVPALSLVVLILSDVVEFLNTLNVPSLVDTTIQFVNYLGLQNIAQEDLNRILSELWTFLKPTINKMAEQIYGIPLLFIKGLITVFLTYYFLKDGHRFKDAIMPHVPEVYHVQTELFIRKLNEAYKNLFVVNALTSFTVGLISIAGFWAIGLPNPVTLGALSGILTLLPIVGGWTIYMPLSLYYIAVGMYTKAILLFGFGVIFLSLAPDFAIRPRLVNHESDIHPAIALVAFLMGPLALGVTGFALGPLIMGTFDAIFRVKNGKDSIINLK | failed |

— a protein production outcome set (Wang et al. 2014)
